Experimental data from US20240000938A1 (A2 BIOTHERAPEUTICS, published 2024).

Key:
[1] = molecular target: HLA-A*02 / HA-1(H) peptide … on T2 cells (human); assay: cell-based or functional assay
[2] = molecular target: HLA-A*02 on cells (human); assay: cell-based or functional assay

B1: HA-1 Ftcr blocker (TCR, V domains shown)
V domain 1: KNEVEQSPQNLTAQEGEFITINCSYSVGISALHWLQQHPGGGIVSLFMLSSGKKKHGRLIATINIQEKHSSLHITASHPRDSAVYICAVRSVSGAGSYQLTFGKGTKLSVIP
V domain 2: DTGVSQNPRHKITKRGQNVTFRCDPISEHNRLYWYRQTLGQGPEFLTYFQNEAQLEKSRLLSDRFSAERPKGSFSTLEIQRTEQGDSAMYLCASSIDSFNEQFFGPGTRLTVLE
- Emax shifted downward (KRAS TCR) [1]: 2.7 fold
- Emax shifted downward (NY-ESO-1 TCR) [1]: 1.5 fold
- additional right shift in activity of the NY-ESO-1 TCR [1]: ~10 fold
- block of KRAS TCR activity [1]: ~5 fold

Binder: VLHDDLLEA [HA-1(H) peptide VLHDDLLEA]
- EC50 right shift of the NY-ESO-1 TCR [2]: ~30 fold
